Values of other authors as cited in publication PMC3039444.

Molecular target: Ube2g2 (Homo sapiens) (UniProt P60604)
Sequence of UniProt P60604 (P60604 2-165): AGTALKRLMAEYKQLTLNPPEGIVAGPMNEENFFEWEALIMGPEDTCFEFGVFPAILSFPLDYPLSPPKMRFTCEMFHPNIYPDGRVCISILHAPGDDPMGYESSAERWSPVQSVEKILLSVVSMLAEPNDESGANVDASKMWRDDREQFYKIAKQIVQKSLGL

## gp78 G2BR (from UniProt Q9UKV5)
  Kd: 21 nM
